{"source": "patent US20110293511A1", "about": "“SPECIFIC BINDING PROTEINS AND USES THEREOF” (priority 2009, published 2011)", "molecules": {"B1": {"name": "mAb806: murine IgG2b monoclonal antibody, clone 806, ATCC PTA-3858; VH SEQ ID NO:2, VL SEQ ID NO:4 (antibody, listed as Mus musculus, V domains shown)", "VH": "MRVLILLWLFTAFPGVLSDVQLQESGPSLVKPSQSLSLTCTVTGYSITSDFAWNWIRQFPGNKLEWMGYISYSGNTRYNPSLKSRISITRDTSKNQFFLQLNSVTIEDTATYYCVTAGRGFPYWGQGTLVTVSA", "VL": "MVSTAQFLAFLLLWFPGARCDILMTQSPSSMSVSLGDTVSITCHSSQDINSNIGWLQQRPGKSFKGLIYHGTNLDDEVPSRFSGSGSGADYSLTISSLESEDFADYYCVQYAQFPWTFGGGTKLEIKR"}}, "key": {"U87MG.wtEGFR cells": {"tested_on": "U87MG.wtEGFR cells", "assay": "binding to cell lines by FACS", "parameters": "species or system human", "experimental": "(§1) Briefly, cells were labelled with the relevant antibody (10 μg/ml) followed by fluorescein-conjugated goat anti-mouse IgG (1:100 dilution; Calbiochem San Diego, Calif., USA; Becton-Dickinson PharMingen, San Diego, Calif., US) as described previously (Nishikawa et al., 1994). FACS data was obtained on a Coulter Epics Elite ESP by observing a minimum of 5,000 events and analyzed using EXPO (version 2) for Windows.\n(§2) Stained cells were analyzed with a FACS Calibur using Cell Quest software (Becton-Dickinson PharMingen). […] 1. Mouse IgG2a or IgG2b was used as an isotype control.\n(§3) Cell lines and antibodies were prepared as described in Example 1. […] Cells (1 3 10 6) were incubated with 5 μg/ml of the appropriate antibody or an isotype-matched negative control in PBS containing 1% HSA for 30 min at 4° C. After three washes with PBS/1% HSA, cells were incubated an additional 30 min at 4° C. with FTTC-coupled goat anti-mouse antibody (1:100 dilution; Calbiochem, San Diego, Calif.). After three subsequent washes, cells were analyzed on an Epics Elite ESP (Beckman Coulter, Hialeah, Fla.) by observing a minimum of 20,000 events and analyzed using EXPO (version 2) for Windows."}, "U87MG cells": {"tested_on": "U87MG cells", "assay": "binding to cell lines by FACS", "parameters": "species or system human", "settings": "parental U87MG", "experimental": "as §1, §2, §3"}, "wtEGFR on A431 cells": {"molecular_target": "T1, wtEGFR on A431 cells (Homo sapiens, UniProt P00533)", "T1 construct": "endogenous in cells; host or cells: A431 human squamous carcinoma cells", "assay": "Scatchard analysis on A431 cells", "format": "binding"}, "A431 xenografts": {"tested_on": "A431 xenografts", "assay": "s.c. xenograft therapy study", "format": "in vivo, nude mice", "settings": "for mean tumor volume: day 13, 1 mg injection", "experimental": "Tumor cells (3×10^6) in […] of PBS were inoculated subcutaneously into both flanks of 4-6 week old female nude mice (Animal Research Centre, Western Australia, Australia). […] Treatment was continued for a total of 6 doses, 3 times per week for 2 weeks. In the established model, treatment was started when tumors had reached a mean volume of 65±6.42 mm^3 (U87MG.Δ2-7), 84±9.07 mm3 (U87MG), 73±7.5 mm^3 (U87MG.wtEGFR) or 201±19.09 mm^3 (A431 tumors). Tumor volume in mm^3 was determined using the formula […], where length was the longest axis and width the measurement at right angles to the length (Clark et al. (2000) Therapeutic efficacy of anti-Lewis (y) humanized 3S 193 radioimmunotherapy in a breast cancer model: enhanced activity when combined with Taxol chemotherapy. Clin. Cancer Res. 6, 3621-3628). Data was expressed as mean tumor volume±S.E. for each treatment group. Statistical analysis was performed at given time points using Student's t-test. Animals were euthanized when the xenografts reached an approximate volume of 1.5 cm^3 and the tumors excised for histological examination. This research project was approved by the Animal Ethics Committee of the Austin and Repatriation Medical Centre.\nAG1478 (4-(3-Chloroanilino)-6,7-dimethoxyquinazoline) is a potent and selective inhibitor of the EGFR kinase versus HER2-neu and platelet-derived growth factor receptor kinase (Calbiochem Cat. No. 658552). […] The results are illustrated in FIG. 12. […] 400 μg AG1478 was administered at 0, 2, 4, 7, 9, and 11 days post xenograft.\nWith respect to “(iv),” different groups of mice received either 0.5 mg/injection of each mAb, or 0.25 mg/injection of each mAb.\nFinally, the fourth group of mice, which had been inoculated with A431 cells, received injections as in groups I and III, at 8, 10, 12 and 14 days after inoculation. At the start, the average tumor size was 71 mm^3.\nTo establish xenografts, mice were injected subcutaneously into the right and left inguinal mammary line with 1×10^6 A431 adenocarcinoma cells or 1×10^6 U87MG.de2-7 glioma cells in 100 μl of PBS. Tumor volume (TV) was calculated by the formula […] where length was the longest axis and width the measurement at right angles to length. […] Therapy was administered on days 6, 8, 11, 13, 15 and 18 for A431, and days 4, 6, 8, 11, 13 and 15 for the U87MG.de2-7 cell lines respectively. Mean±SEM tumor volumes until termination of the experiments due to ethical considerations of tumor burden are presented in FIG. 91 for the A431 xenograft until day 25, and in FIG. 92 for U87MG.de2-7 xenografts until day 31."}, "[1]": {"molecular_target": "T2, Peptide C (C-terminal biotinylated de2-7 peptide) (Homo sapiens, UniProt P00533, DELINS30-297G)", "T2 construct": "purchased Biosource, Camarillo, Calif", "assay": "BIAcore with immobilized Peptide C", "format": "binding", "settings": "mAbL8A4 even at 6.25 nM, mAb806 up to 100 nM", "experimental": "Peptide C was immobilized on a Streptavidin microsensor chip at a surface density of 350RU (+/−30RU). Serial dilutions of mAbs were tested for reactivity with the peptide. Blocking experiments using non-biotinylated peptide were performed to assess specificity."}, "DU145 cells": {"tested_on": "DU145 cells", "assay": "FACS analysis", "format": "binding, human", "excerpt": "Clearly, mAb806 and mAb175 can recognize only a small proportion of the EGFR on cells in the presence of an autocrine stimulation loop."}}, "note": "“And” between values parts separate entries of the source, which are not always exact repeats. Equal entries are not always repeated. “Also recorded” adds a separate entry of the source."}
{"molecule": "B1", "values": [{"measurement": "FACS staining", "setting": "U87MG.wtEGFR cells", "value": "stained; also recorded: reacted weakly"}, {"measurement": "FACS staining", "setting": "U87MG cells", "value": "binding levels similar to the control antibody; also recorded: not with U87MG cells"}, {"measurement": "receptors (binding sites) per cell", "setting": "wtEGFR on A431 cells; A431 cells", "value": "2.3×10^5"}, {"measurement": "affinity for the wtEGFR on A431 cells", "setting": "wtEGFR on A431 cells; Scatchard, average of three experiments", "value": "9.5e+07", "unit": "M⁻¹"}, {"measurement": "mean tumor volume", "setting": "A431 xenografts; established model", "value": "451±65.58 mm^3 and 450±70 mm^3"}, {"measurement": "effect on xenograft growth", "setting": "A431 xenografts; preventative model, 0.1 mg", "value": "significantly inhibited; also recorded: inhibited significantly"}, {"measurement": "reduction of tumor volume", "setting": "A431 xenografts; preventative model, 0.1 mg mAb806, 400 μg AG1478", "value": "significant reduction of tumor volume"}, {"measurement": "mean tumor volume", "setting": "A431 xenografts; preventative model", "value": "260±60.33 mm^3 and 260±60 mm^3"}, {"measurement": "reactivity with Peptide C", "setting": "[1]", "value": "did not show detectable specific reactivity"}, {"measurement": "binding by FACS", "setting": "DU145 cells", "value": "bind"}]}
